Results taken from publication PMC9173649 (2022).

Legend:
[1] = target: T1, C1q purified from human serum (human, UniProt P02745 23-245; P02746 28-253; P02747 29-245); experiment: BLI; 2:1 heterogeneous ligand model, kd1 (first site)
[2] = target: T1, C1q purified from human serum; experiment: BLI; 2:1 heterogeneous ligand model, KD1 (first site)
[3] = target: T1, C1q purified from human serum; experiment: BLI; 2:1 heterogeneous ligand model, kd2 (second site)
[4] = target: T1, C1q purified from human serum; experiment: BLI; 2:1 heterogeneous ligand model, KD2 (second site)

T1 sequence (P02745 23-245, chain 1 of 3): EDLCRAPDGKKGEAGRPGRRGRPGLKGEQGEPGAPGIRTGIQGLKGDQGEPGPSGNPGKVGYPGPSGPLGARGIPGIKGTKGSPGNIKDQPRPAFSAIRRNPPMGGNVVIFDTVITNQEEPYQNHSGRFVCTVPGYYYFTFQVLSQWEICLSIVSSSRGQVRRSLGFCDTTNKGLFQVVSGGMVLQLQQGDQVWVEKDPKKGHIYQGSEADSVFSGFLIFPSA
T1 sequence (P02746 28-253, chain 2 of 3): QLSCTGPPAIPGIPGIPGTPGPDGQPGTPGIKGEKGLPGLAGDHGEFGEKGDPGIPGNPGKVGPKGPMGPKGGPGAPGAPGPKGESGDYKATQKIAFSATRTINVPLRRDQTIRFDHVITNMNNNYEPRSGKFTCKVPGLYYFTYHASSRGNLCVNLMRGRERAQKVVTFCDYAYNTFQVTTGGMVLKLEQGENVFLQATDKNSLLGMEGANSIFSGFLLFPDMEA
T1 sequence (P02747 29-245, chain 3 of 3): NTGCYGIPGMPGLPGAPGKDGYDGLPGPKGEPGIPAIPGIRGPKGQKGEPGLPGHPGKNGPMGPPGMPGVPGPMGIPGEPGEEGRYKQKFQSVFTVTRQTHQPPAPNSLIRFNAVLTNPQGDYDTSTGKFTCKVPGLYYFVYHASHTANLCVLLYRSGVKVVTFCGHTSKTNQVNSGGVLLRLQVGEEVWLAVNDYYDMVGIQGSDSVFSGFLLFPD

- koff [1]: 0.000402 s⁻¹
- Kd [2]: 10 nM
- koff [3]: 0.00928 s⁻¹
- Kd [4]: 4.33 nM
B1: C1r2C1s2 catalytic tetramer (complex)
chain 1: SIPIPQKLFGEVTSPLFPKPYPNNFETTTVITVPTGYRVKLVFQQFDLEPSEGCFYDYVKISADKKSLGRFCGQLGSPLGNPPGKKEFMSQGNKMLLTFHTDFSNEENGTIMFYKGFLAYYQAVDLDECASRSKSGEEDPQPQCQHLCHNYVGGYFCSCRPGYELQEDTHSCQAECSSELYTEASGYISSLEYPRSYPPDLRCNYSIRVERGLTLHLKFLEPFDIDDHQQVHCPYDQLQIYANGKNIGEFCGKQRPPDLDTSSNAVDLLFFTDESGDSRGWKLRYTTEIIKCPQPKTLDEFTIIQNLQPQYQFRDYFIATCKQGYQLIEGNQVLHSFTAVCQDDGTWHRAMPRCKIKDCGQPRNLPNGDFRYTTTMGVNTYKARIQYYCHEPYYKMQTRAGSRESEQGVYTCTAQGIWKNEQKGEKIPRCLPVCGKPVNPVEQRQRIIGGQKAKMGNFPWQVFTNIHGRGGGALLGDRWILTAAHTLYPKEHEAQSNASLDVFLGHTNVEELMKLGNHPIRRVSVHPDYRQDESYNFEGDIALLELENSVTLGPNLLPICLPDNDTFYDLGLMGYVSGFGVMEEKIAHDLRFVRLPVANPQACENWLRGKNRMDVFSQNMFCAGHPSLKQDACQGDSGGVFAVRDPNTDRWVATGIVSWGIGCSRGYGFYTKVLNYVDWIKKEMEEED
chain 2: EPTMYGEILSPNYPQAYPSEVEKSWDIEVPEGYGIHLYFTHLDIELSENCAYDSVQIISGDTEEGRLCGQRSSNNPHSPIVEEFQVPYNKLQVIFKSDFSNEERFTGFAAYYVATDINECTDFVDVPCSHFCNNFIGGYFCSCPPEYFLHDDMKNCGVNCSGDVFTALIGEIASPNYPKPYPENSRCEYQIRLEKGFQVVVTLRREDFDVEAADSAGNCLDSLVFVAGDRQFGPYCGHGFPGPLNIETKSNALDIIFQTDLTGQKKGWKLRYHGDPMPCPKEDTPNSVWEPAKAKYVFRDVVQITCLDGFEVVEGRVGATSFYSTCQSNGKWSNSKLKCQPVDCGIPESIENGKVEDPESTLFGSVIRYTCEEPYYYMENGGGGEYHCAGNGSWVNEVLGPELPKCVPVCGVPREPFEEKQRIIGGSDADIKNFPWQVFFDNPWAGGALINEYWVLTAAHVVEGNREPTMYVGSTSVQTSRLAKSKMLTPEHVFIHPGWKLLEVPEGRTNFDNDIALVRLKDPVKMGPTVSPICLPGTSSDYNLMDGDLGLISGWGRTEKRDRAVRLKAARLPVAPLRKCKEVKVEKPTADAEAYVFTPNMICAGGEKGMDSCKGDSGGAFAVQDPNDKTKFYAAGLVSWGPQCGTYGLYTRVKNYVDWIMKTMQENSTPRED
